Test results: PMC3884107 (PLoS ONE, 2013)
Substitutions are numbered along the chain they refer to. Names and notes keep the numbering of the source.

T1: RON-Fc (human RON Sema, PSI and IPT1 domains, E25-M682, Fc fusion with human IgG1) (human, UniProt Q04912-1 25-682)
T1 construct: human RON (Recepteur d'Origine Nantais, MST1R), Sema, PSI and IPT1 domains, E25-M682; also called RON-Fc fusion protein; source: CHO cells; purified (MabSelect Sure, SEC)
T1 sequence (looked up): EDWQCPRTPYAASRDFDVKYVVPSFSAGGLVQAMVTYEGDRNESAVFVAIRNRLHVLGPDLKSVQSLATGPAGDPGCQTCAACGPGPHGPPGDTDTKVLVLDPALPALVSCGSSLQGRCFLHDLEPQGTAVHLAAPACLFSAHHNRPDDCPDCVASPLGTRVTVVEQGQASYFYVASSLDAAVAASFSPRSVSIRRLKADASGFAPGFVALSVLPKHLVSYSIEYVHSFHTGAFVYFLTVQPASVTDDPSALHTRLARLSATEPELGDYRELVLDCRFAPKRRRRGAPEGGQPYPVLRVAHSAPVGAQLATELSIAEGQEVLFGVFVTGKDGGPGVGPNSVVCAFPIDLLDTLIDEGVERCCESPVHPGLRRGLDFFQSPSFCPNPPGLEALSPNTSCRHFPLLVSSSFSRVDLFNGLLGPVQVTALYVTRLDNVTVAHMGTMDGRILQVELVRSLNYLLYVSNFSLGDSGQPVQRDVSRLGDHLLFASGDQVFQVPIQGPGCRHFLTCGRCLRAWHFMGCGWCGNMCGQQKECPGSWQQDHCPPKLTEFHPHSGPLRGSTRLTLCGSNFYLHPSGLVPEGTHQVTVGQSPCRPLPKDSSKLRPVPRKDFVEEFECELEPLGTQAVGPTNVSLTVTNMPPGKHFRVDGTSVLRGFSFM

T2: RON Sema/PSI (human RON residues E25-P568) (human, UniProt Q04912-1 25-568)
T2 construct: human RON (Recepteur d'Origine Nantais, MST1R), Sema and PSI domains, E25-P568; Expressed with an N-terminal gp67 secretion signal; source: Trichoplusia ni insect cells, baculovirus; purified from the media (Ni-NTA, SEC)
T2 sequence (looked up): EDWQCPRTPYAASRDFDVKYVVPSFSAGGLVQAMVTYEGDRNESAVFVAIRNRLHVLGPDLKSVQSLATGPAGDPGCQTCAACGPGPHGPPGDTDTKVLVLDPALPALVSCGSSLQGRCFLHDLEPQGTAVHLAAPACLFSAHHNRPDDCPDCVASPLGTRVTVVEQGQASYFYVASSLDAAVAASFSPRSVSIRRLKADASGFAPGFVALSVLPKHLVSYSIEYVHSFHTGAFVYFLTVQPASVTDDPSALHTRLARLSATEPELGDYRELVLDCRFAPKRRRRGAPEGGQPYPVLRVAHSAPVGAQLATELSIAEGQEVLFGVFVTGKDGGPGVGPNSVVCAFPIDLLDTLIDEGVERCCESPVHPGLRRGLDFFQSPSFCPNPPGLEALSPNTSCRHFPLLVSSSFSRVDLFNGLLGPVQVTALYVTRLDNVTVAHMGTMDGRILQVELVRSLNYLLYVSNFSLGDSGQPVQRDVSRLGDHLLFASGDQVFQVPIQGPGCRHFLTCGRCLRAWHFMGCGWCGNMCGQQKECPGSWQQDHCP

B1: MSP 689R (active two-chain macrophage stimulating protein; Q19-G711; C672A) (ligand, human)
chain 1: QRSPLNDFQVLRGTELQHLLHAVVPGPWQEDVADAEECAGRCGPLMDCRAFHYNVSSHGCQLLPWTQHSPHTRLRRSGRCDLFQKKDYVRTCIMNNGVGYRGTMATTVGGLPCQAWSHKFPNDHKYTPTLRNGLEENFCRNPDGDPGGPWCYTTDPAVRFQSCGIKSCREAACVWCNGEEYRGAVDRTESGRECQRWDLQHPHQHPFEPGKFLDQGLDDNYCRNPDGSERPWCYTTDPQIEREFCDLPRCGSEAQPRQEATTVSCFRGKGEGYRGTANTTTAGVPCQRWDAQIPHQHRFTPEKYACKDLRENFCRNPDGSEAPWCFTLRPGMRAAFCYQIRRCTDDVRPQDCYHGAGEQYRGTVSKTRKGVQCQRWSAETPHKPQFTFTSEPHAQLEENFCRNPDGDSHGPWCYTMDPRTPFDYCALRRCADDQPPSILDPPDQVQFEKCGKRVDRLDQRRSKLR
chain 2: VVGGHPGNSPWTVSLRNRQGQHFCGGSLVKEQWILTARQCFSSCHMPLTGYEVWLGTLFQNPQHGEPSLQRVPVAKMVCGPSGSQLVLLKLERSVTLNQRVALICLPPEWYVVPPGTKCEIAGWGETKGTGNDTVLNVALLNVISNQECNIKHRGRVRESEMCTEGLLAPVGACEGDYGGPLACFTHNAWVLEGIIIPNRVCARSRWPAVFTRVSVFVDWIHKVMRLG
notes: MSP alpha-chain of human macrophage stimulating protein: from Q19 of the pro-MSP construct to R483 (cleavage between R483 and V484); disulfide-linked to the beta-chain; Made as single-chain pro-MSP (Q19-G711; C672A; C-terminal 6-His) and cleaved by sHepsin; For the radioligand assay part of the protein was iodinated with 125I (Iodogen); also called HGFL; MST1; source: CHO cells, transiently …
B2: MSP β 689R (V484-G711; C588S, C672A) (domain or fragment, human, UniProt P26927 484-711, looked up)
chain: B1 chain 2 with C105S
notes: source: CHO cells, transiently transfected, secreted; purified (Ni-NTA, SEC); not shown: His6, C-terminal, kept
B3: MSP β 672C 689R (V484-G711; C588S, without C672A) (domain or fragment, human, UniProt P26927 484-711, looked up)
chain: B1 chain 2 with C105S, A189C
notes: source: CHO cells, transiently transfected, secreted; purified (Ni-NTA, SEC)
B4: MSP β 672C 689C (V484-G711; C588S, without C672A; 689C) (domain or fragment, human, UniProt P26927 484-711, looked up)
chain: B1 chain 2 with C105S, A189C, R206C
notes: as for B3
B5: MSP β 689C (V484-G711; C588S, C672A; 689C) (domain or fragment, human, UniProt P26927 484-711, looked up)
chain: B1 chain 2 with C105S, R206C
notes: as for B2
B6: MSP 689C (active two-chain macrophage stimulating protein; Q19-G711; C672A; 689C) (ligand, human)
chain 1: B1 chain 1
chain 2: B1 chain 2 with R206C
notes: MSP alpha-chain of human macrophage stimulating protein: from Q19 of the pro-MSP construct to R483 (cleavage between R483 and V484); disulfide-linked to the beta-chain; Made as single-chain pro-MSP (Q19-G711; C672A; C-terminal 6-His) and cleaved by sHepsin; For the radioligand assay part of the protein was iodinated with 125I (Iodogen); source: CHO cells, transiently transfected, secreted; …

How the values were obtained:
[1] = target: T3, human RON on 3T3-hRON cells (human, UniProt Q04912-1 25-1400); experiment: radioligand binding; competition of 125I-MSP with unlabeled MSP on 3T3-hRON cells, 4 h on ice; conditions: one partner purified
T3 construct: human RON (Recepteur d'Origine Nantais, MST1R) expressed on the surface of 3T3-hRON cells; In the functional rows this molecule also stands for human RON on A2780-hRON, BxPC3, HCT15 and HPC5 cells; also called Recepteur d'Origine Nantais; MST1R; source: 3T3 cells stably transfected with human RON (3T3-hRON), on cells

[2] = target: T3, human RON on 3T3-hRON cells; experiment: radioligand binding; competition of 125I-MSP with unlabeled MSP (from 5 µM) on 150,000 3T3-hRON cells, 2 h at room temperature; DMEM, 1% BSA, 325 nM human IgG, 50 mM HEPES pH 7.2, 0.1% sodium azide; Scatchard analysis; conditions: one partner purified
[3] = target: T1, RON-Fc (human RON Sema, PSI and IPT1 …); experiment: ELISA; RON-Fc (1 µg/ml) captured on plate-coated rabbit anti-human IgG Fc; MSP 1000 nM-0.2 pM, 1 h, room temperature; 50 mM HEPES pH 7.2, 150 mM NaCl, 5 mM CaCl2, 1% BSA, 0.1% Tween-20; bound MSP detected with anti-His-HRP; 4-parameter fit; conditions: both partners purified
[4] = target: T1, RON-Fc (human RON Sema, PSI and IPT1 …); experiment: BLI; RON-Fc (10 µg/ml) loaded on anti-human IgG Fc biosensors, Octet RED384; MSP, MSP β or scMSP 75-4.7 nM, 400 s association, 400 s dissociation, 30°C; global 1:1 fit, KD = koff/kon; conditions: both partners purified
[5] = target: T1, RON-Fc (human RON Sema, PSI and IPT1 …); experiment: SPR; RON-Fc captured (50-100 RU) on immobilised anti-human Fc surfaces, CM5 chip, Biacore 3000; MSP, MSP β or scMSP injected 500-3.9 nM in HBS-P (10 mM HEPES pH 7.5, 150 mM NaCl, 0.005% P20), 25°C, 30 µl/min; global 1:1 Langmuir fit, KD = koff/kon; conditions: both partners purified
[6] = target: T2, RON Sema/PSI (human RON residues …); experiment: SPR; RON Sema/PSI amine-coupled to a CM5 chip, Biacore 3000; MSP, MSP β or scMSP injected 500-3.9 nM in HBS-P (10 mM HEPES pH 7.5, 150 mM NaCl, 0.005% P20), 25°C, 30 µl/min; global 1:1 Langmuir fit, KD = koff/kon; conditions: both partners purified

| Binder | Kd [1] [nM] | Kd [2] [nM] | EC50 [3] [nM] | Kd [4] [nM] | koff [4] [s⁻¹] | kon [4] [M⁻¹ s⁻¹] | Kd [5] [nM] | koff [5] [s⁻¹] | kon [5] [M⁻¹ s⁻¹] | Kd [6] [nM] | koff [6] [s⁻¹] | kon [6] [M⁻¹ s⁻¹] |
| --- | --- | --- | --- | --- | --- | --- | --- | --- | --- | --- | --- | --- |
| B1 | 23 | 12.6 | 0.1 |  |  |  |  |  |  |  |  |  |
| B2 |  |  | 0.05 | 7.5 | 0.0035 | 470000 | 9.6 | 0.0175 | 1.81e+06 | 6.6 | 0.0184 | 2.71e+06 |
| B3 |  |  |  |  |  |  | 6.3 | 0.0066 | 860000 |  |  |  |
| B4 |  |  |  |  |  |  | 9.7 | 0.0075 | 770000 |  |  |  |
| B5 |  |  | 0.1 | 9.1 | 0.0093 | 1.05e+06 | 9 | 0.0419 | 4.42e+06 | 9.1 | 0.0134 | 1.46e+06 |
| B6 | 25.7 | 13 | 0.2 |  |  |  |  |  |  |  |  |  |
